The record followed here is US5766899.

Assay [1] has as its target CS receptor on primary mouse hepatocytes (mouse).
Assay [2] has the same target. The source holds these as a separate data set.
Substrate in assay [3]: CS receptor on primary mouse hepatocytes (mouse)
The source holds these as a separate data set.

For the molecule “BSA/poly(L-lysine) conjugate (from UniProt P02769)”, the transfection efficiency of primary hepatocytes (X-gal staining) (% transfection efficiency) in assay [1] was less than 10.

poly(L-lysine) returned a transfection efficiency of primary hepatocytes (X-gal staining) (% transfection efficiency) in assay [1] of less than 5.

With “DHFR-CSF1-His6/poly(L-lysine) conjugate (from UniProt P00375)”, the Blue cells (%) after transfection of primary hepatocytes with conjugate/pCMV-β-gal DNA complex (X-gal staining) in assay [2] is less than 1 % blue cells.

Take EWSPCSVTCGNGIQVRIKPGSAN [Peptide E35]: the inhibition of β-galactosidase activity (ONPG) in CS27IVC-His6 conjugate-mediated gene transfer into primary hepatocytes (% inhibited at 0.125 µM) in assay [3] was 50.
